Measured values: patent publication US20240091360A1 (LENTIGEN TECHNOLOGY, published 2024)

Key:
[1] = molecular target: T1, ROR1-Fc peptide (R&D System) (UniProt Q01973 30-403); experiment: flow cytometry; transduced primary human T cells stained with ROR1-Fc, then anti-Fc Alexa Flour 647
T1 construct: Bought detection reagent (R&D Systems), detected with anti Fc-AF647; not shown: Fc part of the bought reagent, not described
Description: Half million CAR T cells were washed in cold AutoMACS buffer supplemented with 0.5% bovine serum albumin (Miltenyi Biotec, Bergisch Gladbach, Germany) and stained with CAR detection reagents. For ROR CAR, cells were stained with ROR1-Fc peptide (R&D System, Minneapolis, MN), followed by anti Fc-AF647 conjugate(Jackson ImmunoResearch, West Grove, PA). For MSLN CAR, cells were stained with MSLN-His (R&D System, Minneapolis, MN) […] anti-His-APC (Miltenyi Biotec). The 7-Aminoactinomycin D staining (7-AAD, BD Biosciences, San Jose, CA) was added to exclude dead cells. CD4 antibody labeled with VioBlue fluorochrome or CD8 antibody labeled with VioGreen fluorochrome was used to separate CD4 and CD8 population. Non-transduced cells (UTD) were used as a negative control. Cells were washed twice, resuspended in 200 μl running buffer, and acquired by flow cytometry. Flow cytometric analysis was performed on a MACSQuant® 10 Analyzer (Miltenyi Biotec), and data plots were generated using FlowJo software (Ashland, OR).
ROR1 and MSLN mono CARs and tandem CARs without mIL7 were included as control (FIG. 2A). CAR sequences were further incorporated into a third-generation lentiviral vectors and transduced into human primary T cells at MOI 40, to generate the ROR1 and/or MSLN CAR T cells under the control of the mammalian EF-1α promoter. Un-transduced T cells derived from same donor (UTD) were used as negative control. Surface expression of CARs with ROR1 binder on transduced T cells was measured by flow cytometry using ROR1-Fc, followed by staining with anti-Fc Alexa Flour 647. CARs with MSLN scFv surface expression was detected by MSLN-His followed by anti-His APC. […] Quantified CAR positive percentage and mean fluorescence intensity (MFI) of ROR1 binders (FIG. 2B, 2D) and MSLN binders (FIG. 2C, 2E) were plotted as bar figure.

[2] = molecular target: T2, CD276-His (Acro biosystems) (UniProt Q5ZPR3-2 29-245, limits assumed); experiment: flow cytometry; transduced primary human T cells co-stained with ROR1-Fc and CD276-His, then anti-Fc and anti-His conjugates
T2 construct: Bought detection reagent, detected with anti-His PE
T2 sequence (looked up): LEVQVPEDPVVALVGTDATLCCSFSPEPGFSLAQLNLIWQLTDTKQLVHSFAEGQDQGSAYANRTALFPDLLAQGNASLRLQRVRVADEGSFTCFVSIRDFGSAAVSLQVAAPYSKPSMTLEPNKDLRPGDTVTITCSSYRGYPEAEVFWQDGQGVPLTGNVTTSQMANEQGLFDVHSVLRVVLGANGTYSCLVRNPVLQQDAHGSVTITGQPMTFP
Description: Half million CAR T cells were washed in cold AutoMACS buffer supplemented with 0.5% bovine serum albumin (Miltenyi Biotec, Bergisch Gladbach, Germany) and stained with CAR detection reagents. For ROR1 CAR, cells were stained with ROR1-Fc peptide (R&D System, Minneapolis, MN), followed by anti Fc-AF647 conjugate(Jackson ImmunoResearch, West Grove, PA). For CD276 CAR or CCR, cells were stained with CD276-His (Acro biosystems, Newark, De), followed by anti-His PE (Miltenyi Biotech). The 7-Aminoactinomycin D staining (7-AAD, BD Biosciences, San Jose, CA) was added to exclude dead cells. CD4 antibody labeled with VioBlue was used to separate CD4 and CD8 population. Non-transduced cells (UTD) were used as a negative control. Cells were washed twice, resuspended in 200 μl running buffer, and acquired by flow cytometry. […]
CD276 specific targeting-scFvs were first evaluated in CAR context in vitro, ROR1 CAR was included as control. […] Surface expression of CD276 CARs with ROR1 binder on transduced T cells was measured by flow cytometry using CD276-His, followed by staining with anti-His PE. ROR1 CAR expression was determined as previously described. […] The target specific cytotoxicity of CD276 and/or ROR1 CARs was measured by luciferase based overnight killing assy. […]

[3] = molecular target: T3, ROR1.Fc (Sino Biologicals) (UniProt Q01973 30-403); experiment: flow cytometry of transduced primary human T cells at day 8; ROR1.Fc and anti-human Fc.AF647 are the listed reagents
T3 construct: not shown: Fc part of the bought reagent, not described
Experimental: Flow cytometric analysis was performed as previously described (12, 15, 16). All cell staining reagents for flow cytometry were from Miltenyi Biotec, unless otherwise noted. These include anti-ROR1.AF647, mouse IgG1 control. APC, anti-CD45.PE, anti-CD8. Viogreen, anti-CD3.VioBlue, anti-CD45. VioBright FITC, anti-CD45RA. APC-Vio770, anti-CD62L.PE, anti-PD1.PE-Vio770, Streptavidin. PE (Miltenyi Biotec). Cell viability solution (7-AAD), BD Pharm Lysing buffer were purchased from BD Biosciences. Anti-ROR1.AF647 was from R&D systems. ROR1.Fc was from Sino Biologicals. Anti-human Fc.AF647 was from Jackson ImmunoResearch. Countbright absolute counting beads were from ThermoFisher Scientific. Anti-TGFβRII. Biotin was from Biolegend. Stained cells were analyzed using the MACSQuant Analyzer 10 flow cytometer (Miltenyi Biotec).

[4] = molecular target: T4, FolR1-Fc peptide (Acro Biosystems) (UniProt P15328 25-233); experiment: flow cytometry; transduced primary human T cells stained with FolR1-Fc, then anti-Fc Alexa Flour 647
T4 construct: Bought detection reagent, detected with anti Fc-AF647; not shown: Fc part of the bought reagent, not described
Description: 0.32E6 CAR-T cells were washed in cold AutoMACS buffer supplemented with 0.5% bovine serum albumin (Miltenyi Biotec, Bergisch Gladbach, Germany) and stained with CAR detection reagents. For ROR CAR, cells were stained with ROR1-Fc peptide (R&D Systems, Minneapolis, MN) and FolR1 CAR were stained with FolR1-Fc peptide (Acro Biosystems, Newark, DE) followed by anti Fc-AF647 conjugate (Jackson ImmunoResearch, West Grove, PA). The 7-Aminoactinomycin D staining (7-AAD, BD Biosciences, San Jose, CA) was added to exclude dead cells. CD4 antibody labeled with VioBlue fluorochrome was used to separate CD4 and CD8 population. Processed mouse bone marrow and spleen were stained with human CD3 VioBlue and human CD45 FITC (Miltenyi Biotec) to determine the presence of CAR-T. To assess for memory phenotype, cells were stained with CD62L PE and CD45RA APC-Vio700 (Miltenyi Biotec). Non-transduced cells (UTD) were used as a negative control. Cells were washed twice, resuspended in 200 μl running buffer, and acquired by flow cytometry. […]
To test CAR-T functionality in vitro, ROR1 or FolR1 mono CARs with MMP-2, MMP-9, HPSE or PH-20 as booster elements were characterized. […] Surface expression of CARs with ROR1 or FolR1 binder on transduced T cells was measured by flow cytometry using ROR1-Fc or FolR1-Fc respectively, followed by staining with anti-Fc Alexa Flour 647.

T1 sequence (Q01973 30-403): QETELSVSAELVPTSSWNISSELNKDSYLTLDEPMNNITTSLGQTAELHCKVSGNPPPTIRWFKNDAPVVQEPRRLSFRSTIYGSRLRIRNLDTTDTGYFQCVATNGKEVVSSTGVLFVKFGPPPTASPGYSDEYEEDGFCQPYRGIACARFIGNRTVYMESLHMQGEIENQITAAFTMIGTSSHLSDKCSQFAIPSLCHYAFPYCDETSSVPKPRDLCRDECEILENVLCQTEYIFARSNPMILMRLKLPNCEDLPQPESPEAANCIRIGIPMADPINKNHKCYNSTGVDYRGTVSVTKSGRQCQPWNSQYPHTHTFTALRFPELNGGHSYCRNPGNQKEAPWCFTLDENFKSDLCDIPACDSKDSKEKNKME
T3 sequence (Q01973 30-403): as above
T4 sequence (P15328 25-233): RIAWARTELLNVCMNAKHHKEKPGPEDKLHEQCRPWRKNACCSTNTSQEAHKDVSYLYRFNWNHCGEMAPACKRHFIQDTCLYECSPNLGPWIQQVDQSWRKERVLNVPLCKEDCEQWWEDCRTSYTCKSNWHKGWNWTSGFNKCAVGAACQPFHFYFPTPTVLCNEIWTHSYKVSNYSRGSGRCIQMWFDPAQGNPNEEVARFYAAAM

B1: CAR LTG2529 ROR1scFv9 IgG4 CD8 BBz (other)
chain: QAAQVQLQQSGAEVKKPGSSVKVSCKASGGTFSSYAISWVRQAPGQGLEWMGWINPNSGGTNYAQRFQGRVTMTRDTSISTAYMELSRLRSDDTAVYYCASYNDAFDIWGQGTLVTVSSGGGGSGGGGSGGGGSNFMLTQPHSVSESPGKTVTISCTRSSGSIASNYVQWYQQRPGSAPTIVIYEDDQRPSGVPDRFSGSIDTSSNSASLTISGLQSEDEADYYCQSYEPGNGVFGGGTKVTVLAAAESKYGPPCPPCPIYIWAPLAGTCGVLLLSLVITLYCKRGRKKLLYIFKQPFMRPVQTTQEEDGCSCRFPEEEEGGCELRVKFSRSADAPAYQQGQNQLYNELNLGRREEYDVLDKRRGRDPEMGGKPRRKNPQEGLYNELQKDKMAEAYSEIGMKGERRRGKGHDGLYQGLSTATKDTYDALHMQALPPR
notes: Chimeric antigen receptor on lentivirally transduced primary human T cells; The entry includes the N-terminal leader peptide; also called ROR1 CAR LTG2529; ROR1-LTG2529
binding result [1]: binds
binding result [2]: no binding
binding result [3]: binds

B2: D0290 ROR1 scFv9-IgG4 hinge-CD8TM-41BB-CD3ζ (other)
chain: QAAQVQLQQSGAEVKKPGSSVKVSCKASGGTFSSYAISWVRQAPGQGLEWMGWINPNSGGTNYAQRFQGRVTMTRDTSISTAYMELSRLRSDDTAVYYCASYNDAFDIWGQGTLVTVSSGGGGSGGGGSGGGGSNFMLTQPHSVSESPGKTVTISCTRSSGSIASNYVQWYQQRPGSAPTIVIYEDDQRPSGVPDRFSGSIDTSSNSASLTISGLQSEDEADYYCQSYEPGNGVFGGGTKVTVL
notes: CAR on transduced primary human T cells; also called CAR D0290; mono ROR1 CAR; not shown: IgG4 hinge, CD8 TM, 4-1BB, CD3ζ
binding result [1]: binds

B3: CAR D0351 Farle CD8 BBz (other)
chain: MEVQLVESGGGVVQPGRSLRLSCSASGFTFSGYGLSWVRQAPGKGLEWVAMISSGGSYTYYADSVKGRFAISRDNAKNTLFLQMDSLRPEDTGVYFCARHGDDPAWFAYWGQGTPVTVSSASTKGGGGGSGGGGSGGGGSDIQLTQSPSSLSASVGDRVTITCSVSSSISSNNLHWYQQKPGKAPKPWIYGTSNLASGVPSRFSGSGSGTDYTFTISSLQPEDIATYYCQQWSSYPYMYTFGQGTKVEIKRTAAATTTPAPRPPTPAPTIASQPLSLRPEACRPAAGGAVHTRGLDFACDIYIWAPLAGTCGVLLLSLVITLYCKRGRKKLLYIFKQPFMRPVQTTQEEDGCSCRFPEEEEGGCELRVKFSRSADAPAYQQGQNQLYNELNLGRREEYDVLDKRRGRDPEMGGKPRRKNPQEGLYNELQKDKMAEAYSEIGMKGERRRGKGHDGLYQGLSTATKDTYDALHMQALPPR
notes: FolR1 CAR (Farletuzumab scFv) on transduced primary human T cells, PGK promoter; also called Farle-CD8H&TM-41BB-CD3ζ; mono-FolR1 D0351
binding result [4]: binds

B4: CAR LTG2527 ROR1 IgG4 CD8 BBz (other)
chain: QEQLVESGGRLVTPGGSLTLSCKASGFDFSAYYMSWVRQAPGKGLEWIATIYPSSGKTYYATWVNGRFTISSDNAQNTVDLQMNSLTAADRATYFCARDSYADDGALFNIWGPGTLVTISSGGGGSGGGGSGGGGSELVLTQSPSVSAALGSPAKITCTLSSAHKTDTIDWYQQLQGEAPRYLMQVQSDGSYTKRPGVPDRFSGSSSGADRYLIIPSVQADDEADYYCGADYIGGYVFGGGTQLTVTGAAAESKYGPPCPPCPIYIWAPLAGTCGVLLLSLVITLYCKRGRKKLLYIFKQPFMRPVQTTQEEDGCSCRFPEEEEGGCELRVKFSRSADAPAYQQGQNQLYNELNLGRREEYDVLDKRRGRDPEMGGKPRRKNPQEGLYNELQKDKMAEAYSEIGMKGERRRGKGHDGLYQGLSTATKDTYDALHMQALPPR
notes: CAR on transduced primary human T cells; also called ROR1 R12 -IgG4 hinge-CD8TM-41BB-CD3ζ; R12-ROR1 LTG2527
binding result [3]: binds

B5: CAR D0233 MSLN M1-4S ROR1 scFv9 IgG4 CD8 BBz (other)
chain: EVQLVQSGGGLVQPGGSLRLSCAASGFTFDDYAMHWVRQAPGKGLEWVSGISWNSGSIGYADSVKGRFTISRDNAKNSLYLQMNSLRAEDTALYYCAKDLSSVAGPFNYWGQGTLVTVSSGGGGSGGGGSGGGGSSSELTQDPAVSVALGQTVRITCQGDSLRSYYASWYQQKPGQAPVLVIYGKNNRPSGIPDRFSGSSSGNTASLTITGAQAEDEADYYCNSRDSSGNHLVFGGGTQLTVLGGGGGSGGGGSGGGGSGGGGSGGGGSQAAQVQLQQSGAEVKKPGSSVKVSCKASGGTFSSYAISWVRQAPGQGLEWMGWINPNSGGTNYAQRFQGRVTMTRDTSISTAYMELSRLRSDDTAVYYCASYNDAFDIWGQGTLVTVSSGGGGSGGGGSGGGGSNFMLTQPHSVSESPGKTVTISCTRSSGSIASNYVQWYQQRPGSAPTIVIYEDDQRPSGVPDRFSGSIDTSSNSASLTISGLQSEDEADYYCQSYEPGNGVFGGGTKVTVLAAAESKYGPPCPPCPIYIWAPLAGTCGVLLLSLVITLYCKRGRKKLLYIFKQPFMRPVQTTQEEDGCSCRFPEEEEGGCELRVKFSRSADAPAYQQGQNQLYNELNLGRREEYDVLDKRRGRDPEMGGKPRRKNPQEGLYNELQKDKMAEAYSEIGMKGERRRGKGHDGLYQGLSTATKDTYDALHMQALPPR
notes: Tandem CAR on transduced primary human T cells; also called MSLN-ROR1 scFv9-IgG4 hinge-CD8TM-41BB-CD3ζ; tandem CAR D0233
binding result [1]: binds
